# Test results published in PMC4817253.
# System: Nc1ncnc2c1ncn2[C@@H]1O[C@H](CO[P@](=O)(O)O[C@@H]2[C@H](O)[C@@H](CO[P@](=O)(O)O[C@@H]3[C@H](O)[C@@H](CO[P@](=O)(O)O[P@@](=O)(O)OP(=O)(O)O)O[C@H]3n3cnc4c(N)ncnc43)O[C@H]2n2cnc3c(N)ncnc32)[C@@H](O)[C@H]1O
# Assay: purified protein
# Conditions: pH 7.2; 30.0 °C
Substance,Km [µM],kcat/Km [M⁻¹ s⁻¹]
HKU5 NS4b (Pipistrellus bat coronavirus HKU5),1.3 ± 0.3,1.4e+06
MERS-CoV NS4b (Human betacoronavirus 2c EMC/2012),2.6 ± 0.6,800000
MHV NS2 (Murine hepatitis virus strain A59),6.7 ± 1.6,–
SC2013 NS4b (BtVs-BetaCoV/SC2013),2.9 ± 0.6,800000
